In FireProtDB (doi:10.1021/bi00435a062):

B1: Tissue-type plasminogen activator, P00750 (parent)
chain: MDAMKRGLCCVLLLCGAVFVSPSQEIHARFRRGARSYQVICRDEKTQMIYQQHQSWLRPVLRSNRVEYCWCNSGRAQCHSVPVKSCSEPRCFNGGTCQQALYFSDFVCQCPEGFAGKCCEIDTRATCYEDQGISYRGTWSTAESGAECTNWNSSALAQKPYSGRRPDAIRLGLGNHNYCRNPDRDSKPWCYVFKAGKYSSEFCSTPACSEGNSDCYFGNGSAYRGTHSLTESGASCLPWNSMILIGKVYTAQNPSAQALGLGKHNYCRNPDGDAKPWCHVLKNRRLTWEYCDVPSCSTCGLRQYSQPQFRIKGGLFADIASHPWQAAIFAKHRRSPGERFLCGGILISSCWILSAAHCFQERFPPHHLTVILGRTYRVVPGEEEQKFEVEKYIVHKEFDDDTYDNDIALLQLKSDSSRCAQESSVVRTVCLPPADLQLPDWTECELSGYGKHEALSPFYSERLKEAHVRLYPSSRCTSQHLLNRTVTDNMLCAGDTRSGGPQANLHDACQGDSGGPLVCLNDGRMTLVGIISWGLGCGQKDVPGVYTKVTNYLDWIRDNMRP

Variants of: B1
Settings: Homo sapiens, pH 4.5, Thermal, DSC, reversible: yes, structure 1TPK, whole UniProt chain shown
[1] = 64.3 °C, Citric acid trisodium citrate 0.1 M 0.1 M
[2] = Citric acid/trisodium citrate 0.1 M/0.1 M/

Variant | ddG of mutation (higher = less stable) [1] [kcal/mol] | heat capacity change of unfolding [1] [kcal/mol/K] | unfolding enthalpy (calorimetric) [1] [kcal/mol] | Tm [2] [°C] | change of melting temperature, mutant - wild type (higher = more stable) [2] [°C] | unfolding enthalpy (calorimetric) [2] [kcal/mol]
V280I | -0.3 | 0.9 | 67.5 | 64.8 | 0.5 | 67.5
V280L | 1.9 | 0.9 | – | 55.8 | -8.5 | 70.1
V280M | 2.2 | – | – | 54.4 | -9.9 | 67.8
V280S | 2.4 | 0.9 | – | 52.9 | -11.4 | 63.4
V280T | 1 | 0.9 | – | 60 | -4.3 | 75.1
V280A | – | – | – | 55.5 | -8.8 | 72.5
